Results on 6 molecules are retold here after patent US20120003668A1, “HIGH RESOLUTION COMPLEX STRUCTURE AND ALLOSTERIC EFFECTS OF LOW MOLECULAR WEIGHT ACTIVATORS ON THE PROTEIN KINASE PDK1” (UNIVERSITAET DES SAARLANDES, priority 2008, published 2012).

“Also recorded” adds a separate entry of the source. Non-standard residues stand in square brackets, D forms with d. Residues, ends and D or L forms follow the SMILES beside them. *: point of attachment. Biotin = O=C1N[C@H]2[C@H](CS[C@H]2CCCCC(=O)*)N1; pT = C[C@@H](OP(=O)(O)O)[C@H](N)C(=O)O; pS = N[C@@H](COP(=O)(O)O)C(=O)O

As usually defined, the Kd is a measure of binding affinity in units of concentration. As usually defined, the Km is the substrate concentration at which the rate is half of its maximum.

The subject of one data set is PDK1. Description: PDK1 protein kinase activity test with T308tide substrate. Type of data set: biochemical, human. The procedure:
In brief, PDK1 activity assay was performed at room temperature (22° C.) in a 20 μl mix containing 50 mM Tris pH 7.5, 0.05 mg/ml BSA, 0.1% β-mercaptoethanol, 10 mM MgCl2, 100 μM [γ^32P]ATP (5-50 cpm/pmol), 0.003% Brij, 150 ng PDK1, and T308tide (from 0.1 to 1 mM). […] Experiments were repeated at least twice.

The target of a further data set is T1, PDK1 catalytic domain (Homo sapiens, UniProt O15530).
T1 construct: The catalytic domain (CD) of PDK1 50-359 and its mutants
T1 sequence (O15530 50-359): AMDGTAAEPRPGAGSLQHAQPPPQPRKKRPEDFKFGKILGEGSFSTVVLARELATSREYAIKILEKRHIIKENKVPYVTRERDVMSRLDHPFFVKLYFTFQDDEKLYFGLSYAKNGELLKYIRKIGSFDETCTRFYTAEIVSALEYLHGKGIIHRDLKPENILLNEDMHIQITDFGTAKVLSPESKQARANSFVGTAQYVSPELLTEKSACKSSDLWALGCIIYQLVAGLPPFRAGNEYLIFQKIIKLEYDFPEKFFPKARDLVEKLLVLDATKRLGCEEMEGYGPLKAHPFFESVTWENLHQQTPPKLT
Description: TNP-ATP fluorescence probing of the ATP binding site conformation. Type of data set: biochemical. To be noted: 40 μM TNP-ATP, 15 μM PDK1 catalytic domain. The text has this:
Probing the conformation of the ATP binding site in PDK1: The activation of PDK1 by HM-polypeptides and small compounds is due to a change in the conformation of the enzyme. We probed the conformation of the ATP binding site in PDK1 by scanning the steady-state fluorescence of TNP-ATP/PDK1, in the presence or absence of P-HM-polypeptides, PIFtide, or small molecular weight compounds. Data were obtained in a Varian Cary Eclipse spectrofluorometer (excitation λ=479 nm; emission scanning, λ=500-600 nm; excitation slit=10 nm; emission slit=10 nm) at a rate of 200 nm/min, with 150 datapoints/100 nm scanning and 0.3 s averaging time. The incubation was performed at 20° C. in a buffer containing 50 mM Tris pH 7.5, 0.1 mM EDTA, 187 mM NaCl, 40 μM TNP-ATP, 15 μM PDK1 catalytic domain, 1 mM DTT and 1% DMSO. In the absence of PDK1, TNP-ATP produced approximately 1.5 arbitrary units (a.u.) of fluorescence, and the inclusion of PDK1 increased its fluorescence intensity to approximately 3.3 a.u. […] In preliminary tests, inclusion of 2.5 mM MgCl2 in the assay mix produced similar results. Data for each condition are the average of 3 scans.

In a further data set the target is T2, PDK1 CD wt (Homo sapiens, UniProt O15530).
T2 construct: PDK1 CD (50-359), wt (0.35 μM), PDK1 [Phe224Trp] or PDK1 [Thr226Trp] were injected onto the system; GST (N); made in house; host or cells: insect cells
T2 sequence (O15530 50-359): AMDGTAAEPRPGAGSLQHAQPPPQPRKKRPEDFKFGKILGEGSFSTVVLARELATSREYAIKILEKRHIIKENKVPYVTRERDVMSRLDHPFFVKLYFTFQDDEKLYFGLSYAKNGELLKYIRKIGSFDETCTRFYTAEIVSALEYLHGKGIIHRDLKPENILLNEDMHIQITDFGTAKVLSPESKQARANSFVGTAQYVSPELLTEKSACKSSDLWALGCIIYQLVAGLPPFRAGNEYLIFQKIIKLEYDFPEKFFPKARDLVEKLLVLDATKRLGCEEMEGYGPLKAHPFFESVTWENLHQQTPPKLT
Description: Surface plasmon resonance (BiaCore) on biotin-P-HM-S6K chip. Type of data set: binding. Conditions: estimated from response units at equilibrium; read-out: Kd of direct binding of PDK1 CD wt to immobilized peptide. The procedure:
Surface Plasmon resonance (BiaCore) and alpha-screen interaction and displacement assays: Binding of GST-PDK1 to a P-HM-polypeptide derived from S6K1 shown in FIG. 6 was analysed by surface plasmon resonance on a BiaCore 3000 system using a streptavidin-coated Sensor chip (SA) and biotin-P-HM-polypeptide, as previously described (Biondi, R. M. et al., Embo. J. 20:4380-4390 (2001). The interaction of His-PDK1 with biotin-PIFtide and the displacement by compounds shown in FIG. 3 was performed using the alpha-screen Ni-Chelate kit (Perkin Elmer) on an Envision 2104 multilabel system (Perkin Elmer).
BiaCore analysis was performed as described previously (Biondi, R. M. et al., Embo. J. 19:979-988 (2000)). […] Since both mutants were performed on the same construct of PDK1, their mass should be very similar and therefore should also produce 600RU when all biotin-(P)HM-S6K polypeptides on the same chip are bound to the mutant PDK1 proteins. Unfortunately, when mutant PDK1 Phe224Trp and PDK1 Thr226Trp were analysed, the injection of the mutants at concentrations higher than 1.3 μM prompted unspecific effects, therefore making difficult the evaluation. […]

A further data set concerns the target T3, PIFtide.
T3 chain: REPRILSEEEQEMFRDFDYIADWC

For data set [1], the target named is biotin-P-HM-polypeptide derived from S6K1. Description: SPR (BiaCore), immobilised biotin-P-HM-S6K.
biotin-P-HM-polypeptide derived from S6K1, sequence (peptide, as listed by the source limits assumed): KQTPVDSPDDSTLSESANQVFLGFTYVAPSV
In another data set the target is T4, biotin-PIFtide (biotin (position not given)).
T4 construct: Biotinylated PIFtide
T4 peptide: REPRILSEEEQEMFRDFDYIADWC
Description: SPR (BiaCore), immobilised biotin-PIFtide.

The target of data set [2] is biotin-P-HM-polypeptide derived from S6K1. In words: SPR (BiaCore 3000), biotin-P-HM-S6K on streptavidin chip.
Data set [3] shares this target. In words: SPR (BiaCore 3000), biotin-P-HM-S6K on streptavidin chip, equilibrium responses. (In general: SPR reads the build-up and loss of mass on a sensor chip optically.)
Data set [4] has the same target. Description: SPR (BiaCore), biotin-P-HM-S6K chip; injected at 1.8 vs 1.3 µM.
Data set [5] shares this target. In words: SPR (BiaCore), biotin-P-HM-S6K on streptavidin chip; mutant injected at 1.3 or 1.8 µM (which mutant at which concentration is not stated).

Take `O=C(O)/C=C(\CCc1ccc(Br)cc1F)c1ccccc1` [PS133]: the “activation of PDK1” value in the data set on PDK1 (T308tide as substrate) is reported as “nor did they activate PDK1”. The “effect on TNP-ATP fluorescence intensity in the presence of PDK1” value on PDK1 catalytic domain is “did not produce any decrease; also recorded: did not affect”.
For the molecule `CC(C)C[C@H](NC(=O)[C@H](Cc1ccccc1)NC(=O)[C@@H](NC(=O)[C@H](CCC(N)=O)NC(=O)[C@H](CC(N)=O)NC(=O)[C@H](C)NC(=O)[C@H](CO)NC(=O)[C@H](CCC(=O)O)NC(=O)[C@H](CO)NC(=O)[C@H](CC(C)C)NC(=O)[C@@H](NC(=O)[C@H](CO)NC(=O)[C@H](CC(=O)O)NC(=O)[C@H](CC(=O)O)NC(=O)[C@@H]1CCCN1C(=O)[C@H](COP(=O)(O)O)NC(=O)[C@H](CC(=O)O)NC(=O)[C@@H](NC(=O)[C@@H]1CCCN1C(=O)[C@@H](NC(=O)[C@H](CCC(N)=O)NC(=O)[C@H](CCCCN)NC(=O)CCCC[C@@H]1SC[C@@H]2NC(=O)N[C@@H]21)[C@@H](C)O)C(C)C)[C@@H](C)O)C(C)C)C(=O)NCC(=O)N[C@@H](Cc1ccccc1)C(=O)N[C@H](C(=O)N[C@@H](Cc1ccc(O)cc1)C(=O)N[C@H](C(=O)N[C@@H](C)C(=O)N1CCC[C@H]1C(=O)N[C@@H](CO)C(=O)N[C@H](C(=O)O)C(C)C)C(C)C)[C@@H](C)OP(=O)(O)O` [biotin-P-HM-S6K] (Biotin-KQTPVD[pS]PDDSTLSESANQVFLGF[pT]YVAPSV-OH; N-terminus and C-terminus assumed), the Kd on PDK1 CD wt was 500 nM.
As to “KTFCGTPEYLAPEVRR [T308tide, polypeptide substrate of PDK1 derived from the PDK1 phosphorylation site on PKB]”, the Km in the data set on PDK1 (estimated, 22° C.) is above 10 mM.

B1: PDK1 CD (50-359) wt (enzyme)
chain: GPMDGTAAEPRPGAGSLQHAQPPPQPRKKRPEDFKFGKILGEGSFSTVVLARELATSREYAIKILEKRHIIKENKVPYVTRERDVMSRLDHPFFVKLYFTFQDDEKLYFGLSYAKNGELLKYIRKIGSFDETCTRFYTAEIVSALEYLHGKGIIHRDLKPENILLNEDMHIQITDFGTAKVLSPESKQARANSFVGTAQYVSPELLTEKSACKSSDLWALGCIIYQLVAGLPPFRAGNEYLIFQKIIKLEYDFPEKFFPKARDLVEKLLVLDATKRLGCEEMEGYGPLKAHPFFESVTWENLHQQTPPKLTA
notes: also called PDK1 50-359; PDK1 CD wt
Turning to B1, the “PDK1 activity, T308tide as substrate” value with PIFtide is “the wild type protein and PDK1[Phe224Trp] were activated by PIFtide”. Further, in the data set with PIFtide, the “stated: activates; PDK1 activity (%) with T308tide as substrate” value was “The bar without PIFtide is at 100 %. The two hatched PIFtide bars (labelled 2.5 and 40 µM) are both between 350 and 400 %, with little difference between them”. Further, the percent of maximal binding of the wild type protein was 50% in data set [1] and around 50% in the data set with biotin-PIFtide. The response units at maximum binding (PDK1 injected at 5.4 µM) in [2] stood at 600 RU. In data set [3], the Kd stood at 500 nM.

B2: PDK1 CD (50-359) [Phe224Trp] (enzyme)
chain: AMDGTAAEPRPGAGSLQHAQPPPQPRKKRPEDFKFGKILGEGSFSTVVLARELATSREYAIKILEKRHIIKENKVPYVTRERDVMSRLDHPFFVKLYFTFQDDEKLYFGLSYAKNGELLKYIRKIGSFDETCTRFYTAEIVSALEYLHGKGIIHRDLKPENILLNEDMHIQITDWGTAKVLSPESKQARANSFVGTAQYVSPELLTEKSACKSSDLWALGCIIYQLVAGLPPFRAGNEYLIFQKIIKLEYDFPEKFFPKARDLVEKLLVLDATKRLGCEEMEGYGPLKAHPFFESVTWENLHQQTPPKLT
notes: also called PDK1[Phe224Trp]; PDK1 Phe224Trp
In the case of B2, in the data set with PIFtide, the “PDK1 activity, T308tide as substrate” value was “the wild type protein and PDK1[Phe224Trp] were activated by PIFtide”. In addition, the “stated: activates; PDK1 activity (%) with T308tide as substrate” value with PIFtide is “The bar without PIFtide is at 100 %. The two hatched PIFtide bars (labelled 2.5 and 40 µM) are both between 440 and 480 %”. Further, the percent of maximal binding of the wild type protein in data set [1] was 50%; with biotin-PIFtide, around 50%. Besides, the response units in data set [4] was 200 RU; in data set [5], above 200 RU.

B3: PDK1 CD (50-359) [Thr226Trp] (enzyme)
chain: AMDGTAAEPRPGAGSLQHAQPPPQPRKKRPEDFKFGKILGEGSFSTVVLARELATSREYAIKILEKRHIIKENKVPYVTRERDVMSRLDHPFFVKLYFTFQDDEKLYFGLSYAKNGELLKYIRKIGSFDETCTRFYTAEIVSALEYLHGKGIIHRDLKPENILLNEDMHIQITDFGWAKVLSPESKQARANSFVGTAQYVSPELLTEKSACKSSDLWALGCIIYQLVAGLPPFRAGNEYLIFQKIIKLEYDFPEKFFPKARDLVEKLLVLDATKRLGCEEMEGYGPLKAHPFFESVTWENLHQQTPPKLT
notes: also called PDK1[Thr226Trp]; PDK1 Thr226Trp
Take B3: the “PDK1 activity, T308tide as substrate” value in the data set with PIFtide is “PDK1[Thr226Trp] was not activated by PIFtide”. Besides, in the data set with PIFtide, the “stated: no activation; PDK1 activity (%) with T308tide as substrate” value is “The bar without PIFtide is at 100 %. The two hatched PIFtide bars (labelled 2.5 and 40 µM) stay at about 100 %”. For the same molecule, the percent of maximal binding of the wild type protein in data set [1] is 50%; with biotin-PIFtide, around 50%. For the same molecule, the response units in [4] was 200 RU; in [5], above 200 RU.
